{
  "source": "patent US9988424",
  "about": "(DUKE UNIVERSITY, dated 2018)",
  "binders": {"B1": {"name": "CH58 reverted unmutated ancestor antibody (antibody, V domains shown)", "VH": "EVQLVQSGAEVKKPGESLKISCKGSGYSFTSYWIGWVRQMPGKGLEWMGIIYPGDSDTRYSPSFQGQVTISADKSISTAYLQWSSLKASDTAMYYCARLGGRYYYDSSGYYYFDYWGQGTLVTVSS", "VL": "NFMLTQPHSVSESPGKTVTISCTRSSGSIASNYVQWYQQRPGSSPTTVIYEDNQRPSGVPDRFSGSIDSSSNSASLTISGLKTEDEADYYCQSYDSSSWVFGGGTKLTVL", "notes": "also called CH58 RUA; CH58_RUA"}, "B2": {"name": "PG16 (antibody, V domains shown)", "VH": "QEQLVESGGGVVQPGGSLRLSCLASGFTFHKYGMHWVRQAPGKGLEWVALISDDGMRKYHSDSMWGRVTISRDNSKNTLYLQFSSLKVEDTAMFFCAREAGGPIWHDDVKYYDFNDGYYNYHYMDVWGKGTTVTVSS", "VL": "QSALTQPASVSGSPGQTITISCNGTSSDVGGFDSVSWYQQSPGKAPKVMVFDVSHRPSGISNRFSGSKSGNTASLTISGLHIEDEGDYFCSSLTDRSHRIFGGGTKVTVL", "notes": "also called mAb PG16; bnAb PG16"}, "B3": {"name": "697D (antibody, V domains shown)", "VH": "QVQLVQSGAEVKKPGSSVKVSCKASGGNFNTYTISWVRQAPGQGLEWMGRIIPIFGIVNPAQKFPGRVTINVDKSTNTAYMELSSLRSEDTAVYYCATSGVGLHFGYFDYWGQGTQVTVSS", "VL": "QSVLTQPPSVSGAPGQRVTISCTGSSSNIGAHYDVHWYQQLPGTAPKLLIYGNSNRPSGVPDRFSGSKSGTSASLAITGLQAEDEADYYCQSYDSSLSGYVFGTGTKVTVL", "notes": "also called mAb 697D; V2 conformational mAb 697D"}},
  "key": {"gp70 C.1086 V1/V2 [1]": {"target": "T1, gp70 C.1086 V1/V2 (HIV-1 V1V2 on murine leukemia virus gp70)", "T1 construct": "also called C.gp70 1086C V1V2; C.1086gp70V1V2", "T1 chain": "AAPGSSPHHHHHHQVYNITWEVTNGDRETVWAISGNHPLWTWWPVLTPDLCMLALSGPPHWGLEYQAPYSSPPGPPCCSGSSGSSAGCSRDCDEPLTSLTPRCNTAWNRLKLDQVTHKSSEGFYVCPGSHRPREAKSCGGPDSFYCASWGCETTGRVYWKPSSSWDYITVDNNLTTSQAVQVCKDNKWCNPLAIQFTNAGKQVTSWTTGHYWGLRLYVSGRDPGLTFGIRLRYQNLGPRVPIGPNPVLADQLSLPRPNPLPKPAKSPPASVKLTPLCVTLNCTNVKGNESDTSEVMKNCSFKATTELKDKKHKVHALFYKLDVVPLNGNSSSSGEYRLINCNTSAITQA", "assay": "ELISA"}, "gp70 C.1086 V1/V2 [2]": {"target": "T1, gp70 C.1086 V1/V2", "assay": "ELISA"}, "Env of AE.92TH023 virus": {"target": "Env of AE.92TH023 virus (HIV-1)", "assay": "cell-based or functional assay"}, "Env of AE.CM244 virus": {"target": "Env of AE.CM244 virus (HIV-1)", "assay": "cell-based or functional assay"}, "[3]": {"target": "Env of 92TH023 K169Q virus (HIV-1)", "assay": "cell-based or functional assay"}, "[4]": {"target": "Env of TH023.6.I181L virus (HIV-1)", "assay": "cell-based or functional assay"}, "Env of 703357.c02 virus": {"target": "Env of 703357.c02 virus (HIV-1)", "assay": "cell-based or functional assay"}, "[5]": {"target": "Env of 703357.2.Q169K virus (HIV-1)", "assay": "cell-based or functional assay"}, "[6]": {"target": "Env of 703357.2.Q169KR170Q virus (HIV-1)", "assay": "cell-based or functional assay"}, "[7]": {"target": "Env of 703357.2.I181L virus (HIV-1)", "assay": "cell-based or functional assay"}, "[8]": {"target": "Env of 703357.2.Q169KI181L virus (HIV-1)", "assay": "cell-based or functional assay"}, "[9]": {"target": "Env of 703357.2.Q169KR170QI181L virus (HIV-1)", "assay": "cell-based or functional assay"}, "Env of 427299.c12 virus": {"target": "Env of 427299.c12 virus (HIV-1)", "assay": "cell-based or functional assay"}, "[10]": {"target": "Env of 427299.c12.Q169K virus (HIV-1)", "assay": "cell-based or functional assay"}, "[11]": {"target": "Env of 427299.c12.H81L virus (HIV-1)", "assay": "cell-based or functional assay"}, "[12]": {"target": "Env of 427299.c12.KL.Q169K/I181L virus (HIV-1)", "assay": "cell-based or functional assay"}, "[13]": {"target": "Env of CM244NW.4.K169Q virus (HIV-1)", "assay": "cell-based or functional assay"}, "[14]": {"target": "Env of CM244NW.6.I181L virus (HIV-1)", "assay": "cell-based or functional assay"}, "AE.A244 V1V2 Tags [15]": {"target": "AE.A244 V1V2 Tags (HIV-1)", "assay": "ELISA"}, "AE.A244 V1V2 Tags [16]": {"target": "AE.A244 V1V2 Tags (HIV-1)", "assay": "ELISA", "remark": "listed apart in the source"}, "[17]": {"target": "T2, gp70 B.CaseA2 V1/V2/V169K (HIV-1 V1V2 on murine leukemia virus gp70)", "T2 chain": "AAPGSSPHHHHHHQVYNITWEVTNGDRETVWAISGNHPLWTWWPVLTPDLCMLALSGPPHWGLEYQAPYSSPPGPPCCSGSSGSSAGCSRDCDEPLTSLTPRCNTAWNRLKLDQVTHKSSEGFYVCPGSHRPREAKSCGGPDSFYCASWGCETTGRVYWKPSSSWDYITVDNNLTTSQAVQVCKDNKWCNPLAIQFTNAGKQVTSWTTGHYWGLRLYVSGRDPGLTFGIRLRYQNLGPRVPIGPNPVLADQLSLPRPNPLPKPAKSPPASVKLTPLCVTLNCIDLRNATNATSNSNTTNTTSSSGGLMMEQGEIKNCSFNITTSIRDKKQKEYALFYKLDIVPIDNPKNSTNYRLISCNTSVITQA", "assay": "ELISA"}, "[18]": {"target": "T3, gp70 B.CaseA2 V1/V2/V169K/E172V/E173H (HIV-1 V1V2 on murine leukemia virus gp70)", "T3 construct": "also called gp70 B.CaseA2 V1/V2 Mut3", "T3 chain": "T2 chain with E332V, Y333H", "assay": "ELISA"}, "AE.A244 V1V2 Tags [19]": {"target": "AE.A244 V1V2 Tags (HIV-1)", "assay": "ELISA", "remark": "listed apart in the source"}, "AE.A244 gp120 delta 11 [20]": {"target": "T4, AE.A244 gp120 delta 11 (HIV-1)", "T4 construct": "also called E.A244gp120Δ11; AE.A244 Δ11 gp120", "assay": "ELISA"}, "C.1086 V1V2 Tags [21]": {"target": "C.1086 V1V2 Tags (HIV-1)", "assay": "ELISA"}, "AE.A244 gp120 delta 11 [22]": {"target": "T4, AE.A244 gp120 delta 11", "assay": "ELISA", "remark": "listed apart in the source"}, "C.1086 V1V2 Tags [23]": {"target": "C.1086 V1V2 Tags (HIV-1)", "assay": "ELISA", "remark": "listed apart in the source"}},
  "note": "Residue numbers refer to the chain shown, from its start. Read-outs that look alike come from different tables or passages of the source.",
  "data": [
    {"binder": "B1", "values": [
      {"measurement": "EC50", "setting": "gp70 C.1086 V1/V2 [1]", "value": "> 66.7", "unit": "nM"},
      {"measurement": "EC50", "setting": "gp70 C.1086 V1/V2 [2]", "value": "> 66.7", "unit": "nM"},
      {"measurement": "ID50 assayed in TZM-bl cells, TH023.6", "setting": "Env of AE.92TH023 virus", "value": "> 50", "unit": "µg/mL"},
      {"measurement": "ID50 assayed in TZM-bl cells, CM244.ec1", "setting": "Env of AE.CM244 virus", "value": "> 50", "unit": "µg/mL"},
      {"measurement": "ID50 assayed in TZM-bl cells, TH023.6.K169Q", "setting": "[3]", "value": "> 50", "unit": "µg/mL"},
      {"measurement": "ID50 assayed in TZM-bl cells, TH023.6.I181L", "setting": "[4]", "value": "> 50", "unit": "µg/mL"},
      {"measurement": "ID50 assayed in TZM-bl cells, 703357.c02", "setting": "Env of 703357.c02 virus", "value": "> 50", "unit": "µg/mL"},
      {"measurement": "ID50 assayed in TZM-bl cells, 703357.2.Q169K", "setting": "[5]", "value": "> 50", "unit": "µg/mL"},
      {"measurement": "ID50 assayed in TZM-bl cells, 703357.2.Q169KR170Q", "setting": "[6]", "value": "> 50", "unit": "µg/mL"},
      {"measurement": "ID50 assayed in TZM-bl cells, 703357.2.I181L", "setting": "[7]", "value": "> 50", "unit": "µg/mL"},
      {"measurement": "ID50 assayed in TZM-bl cells, 703357.2.Q169KI181L", "setting": "[8]", "value": "> 50", "unit": "µg/mL"},
      {"measurement": "ID50 assayed in TZM-bl cells, 703357.2.Q169KR170QI181L", "setting": "[9]", "value": "> 50", "unit": "µg/mL"},
      {"measurement": "ID50 assayed in TZM-bl cells, 427299.c12", "setting": "Env of 427299.c12 virus", "value": "> 50", "unit": "µg/mL"},
      {"measurement": "ID50 assayed in TZM-bl cells, 427299.c12.Q169K", "setting": "[10]", "value": "> 50", "unit": "µg/mL"},
      {"measurement": "ID50 assayed in TZM-bl cells, 427299.c12.H81L", "setting": "[11]", "value": "> 50", "unit": "µg/mL"},
      {"measurement": "ID50 assayed in TZM-bl cells, 427299.c12.KL.Q169K/I181L", "setting": "[12]", "value": "> 50", "unit": "µg/mL"},
      {"measurement": "ID50 assayed in TZM-bl cells, CM244NW.4.K169Q", "setting": "[13]", "value": "> 50", "unit": "µg/mL"},
      {"measurement": "ID50 assayed in TZM-bl cells, CM244NW.6.I181L", "setting": "[14]", "value": "> 50", "unit": "µg/mL"}
    ]},
    {"binder": "B2", "values": [
      {"measurement": "EC50", "setting": "AE.A244 V1V2 Tags [15]", "value": 3.7, "unit": "nM"},
      {"measurement": "EC50", "setting": "AE.A244 V1V2 Tags [16]", "value": 5.6, "unit": "nM"},
      {"measurement": "binding result", "setting": "[17]", "value": "no binding"},
      {"measurement": "binding result", "setting": "[18]", "value": "no binding"},
      {"measurement": "EC50", "setting": "AE.A244 V1V2 Tags [19]", "value": 3.7, "unit": "nM"}
    ]},
    {"binder": "B3", "values": [
      {"measurement": "EC50", "setting": "AE.A244 V1V2 Tags [15]", "value": 0.1, "unit": "nM"},
      {"measurement": "EC50", "setting": "AE.A244 gp120 delta 11 [20]", "value": 0.23, "unit": "nM"},
      {"measurement": "EC50", "setting": "C.1086 V1V2 Tags [21]", "value": 0.23, "unit": "nM"},
      {"measurement": "EC50", "setting": "gp70 C.1086 V1/V2 [1]", "value": 0.067, "unit": "nM"},
      {"measurement": "EC50", "setting": "AE.A244 V1V2 Tags [16]", "value": 0.6, "unit": "nM"},
      {"measurement": "EC50", "setting": "[17]", "value": 0.14, "unit": "µg/mL"},
      {"measurement": "EC50", "setting": "[18]", "value": 0.04, "unit": "µg/mL"},
      {"measurement": "EC50", "setting": "AE.A244 V1V2 Tags [19]", "value": 0.1, "unit": "nM"},
      {"measurement": "EC50", "setting": "AE.A244 gp120 delta 11 [22]", "value": 0.23, "unit": "nM"},
      {"measurement": "EC50", "setting": "C.1086 V1V2 Tags [23]", "value": 0.23, "unit": "nM"},
      {"measurement": "EC50", "setting": "gp70 C.1086 V1/V2 [2]", "value": 0.067, "unit": "nM"}
    ]}
  ]
}
